# T1: hsGLUT4 R265A (human, UniProt P14672 1-509)
# T1 sequence: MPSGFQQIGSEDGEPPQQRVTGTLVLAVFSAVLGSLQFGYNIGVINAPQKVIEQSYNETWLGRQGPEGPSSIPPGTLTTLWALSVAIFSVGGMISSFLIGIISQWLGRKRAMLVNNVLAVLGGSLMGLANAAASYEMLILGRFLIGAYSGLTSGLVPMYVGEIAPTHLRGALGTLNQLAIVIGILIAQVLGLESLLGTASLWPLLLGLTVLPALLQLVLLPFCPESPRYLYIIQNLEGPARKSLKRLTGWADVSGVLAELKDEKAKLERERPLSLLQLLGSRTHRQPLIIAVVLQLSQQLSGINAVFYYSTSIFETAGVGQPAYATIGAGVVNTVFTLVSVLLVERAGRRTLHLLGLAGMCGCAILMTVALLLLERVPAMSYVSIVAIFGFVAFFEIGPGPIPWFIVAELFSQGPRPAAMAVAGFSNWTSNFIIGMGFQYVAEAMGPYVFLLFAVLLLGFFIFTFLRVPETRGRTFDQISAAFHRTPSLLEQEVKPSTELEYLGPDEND
# T2: hsGLUT4 Y309A (human, UniProt P14672 1-509)
# T2 sequence: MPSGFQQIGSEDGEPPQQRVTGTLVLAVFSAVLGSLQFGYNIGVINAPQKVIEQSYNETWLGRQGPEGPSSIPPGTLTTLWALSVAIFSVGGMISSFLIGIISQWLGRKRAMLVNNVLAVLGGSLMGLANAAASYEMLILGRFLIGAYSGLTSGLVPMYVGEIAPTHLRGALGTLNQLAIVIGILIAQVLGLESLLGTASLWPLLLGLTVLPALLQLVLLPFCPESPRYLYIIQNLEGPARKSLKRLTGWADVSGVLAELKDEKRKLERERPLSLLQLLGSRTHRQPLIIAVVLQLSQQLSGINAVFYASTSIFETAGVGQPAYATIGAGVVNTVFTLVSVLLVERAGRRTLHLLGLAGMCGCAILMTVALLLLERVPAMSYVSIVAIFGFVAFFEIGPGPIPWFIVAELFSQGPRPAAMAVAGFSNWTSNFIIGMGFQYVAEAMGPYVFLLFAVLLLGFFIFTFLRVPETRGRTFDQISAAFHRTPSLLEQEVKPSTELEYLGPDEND
# T3: hsGLUT4 Q295A (human, UniProt P14672 1-509)
# T3 sequence: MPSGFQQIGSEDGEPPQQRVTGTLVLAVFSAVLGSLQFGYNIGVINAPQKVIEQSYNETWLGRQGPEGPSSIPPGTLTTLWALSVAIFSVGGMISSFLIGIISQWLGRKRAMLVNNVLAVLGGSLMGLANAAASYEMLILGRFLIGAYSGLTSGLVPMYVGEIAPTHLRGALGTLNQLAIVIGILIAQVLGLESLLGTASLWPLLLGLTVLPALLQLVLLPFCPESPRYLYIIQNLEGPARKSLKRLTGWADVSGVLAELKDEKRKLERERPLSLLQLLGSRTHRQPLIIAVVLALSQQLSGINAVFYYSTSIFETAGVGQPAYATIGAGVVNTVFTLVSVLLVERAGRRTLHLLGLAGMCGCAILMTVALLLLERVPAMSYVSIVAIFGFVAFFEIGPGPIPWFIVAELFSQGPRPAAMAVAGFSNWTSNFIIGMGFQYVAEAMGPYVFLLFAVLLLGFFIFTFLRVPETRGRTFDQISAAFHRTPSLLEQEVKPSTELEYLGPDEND
# T4: hsGLUT4 I313A (human, UniProt P14672 1-509)
# T4 sequence: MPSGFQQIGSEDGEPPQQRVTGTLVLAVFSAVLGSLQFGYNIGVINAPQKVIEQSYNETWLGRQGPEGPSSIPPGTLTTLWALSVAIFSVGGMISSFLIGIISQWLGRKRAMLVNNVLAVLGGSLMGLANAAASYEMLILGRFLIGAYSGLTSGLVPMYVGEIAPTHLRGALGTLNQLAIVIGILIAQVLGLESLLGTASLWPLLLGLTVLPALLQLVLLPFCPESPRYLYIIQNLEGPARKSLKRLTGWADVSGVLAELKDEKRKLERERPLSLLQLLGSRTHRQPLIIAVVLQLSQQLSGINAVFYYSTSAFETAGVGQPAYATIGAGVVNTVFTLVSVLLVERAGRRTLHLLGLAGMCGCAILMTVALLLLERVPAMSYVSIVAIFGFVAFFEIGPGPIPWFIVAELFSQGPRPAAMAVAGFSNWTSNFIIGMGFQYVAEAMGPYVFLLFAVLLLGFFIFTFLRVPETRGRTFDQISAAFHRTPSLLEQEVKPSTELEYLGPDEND
# Assays:
# Experiment in all cases: flow cytometry, alanine-scan library in HEK-293T
# hsGLUT4 R265A = molecular target: T1, hsGLUT4 R265A
# In short: (§1)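 HEK-293T cells expressing individual GLUT4 alanine mutants were stained 48 h post-transfection with anti-GLUT4 scFv MAbs (2 μg/ml), then biotinylated secondary and streptavidin-PerCP, and read by high-throughput flow cytometry. Where used, cytochalasin B (10 uM final) was given for 30 min before and during primary antibody staining.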
# hsGLUT4 Y309A = molecular target: T2, hsGLUT4 Y309A
# In short: as §1
# hsGLUT4 Q295A = molecular target: T3, hsGLUT4 Q295A
# In short: as §1
# hsGLUT4 I313A = molecular target: T4, hsGLUT4 I313A
# In short: as §1
Molecule,% of binding to wild type GLUT4 (hsGLUT4 R265A) [%],% of binding to wild type GLUT4 (hsGLUT4 Y309A) [%],% of binding to wild type GLUT4 (hsGLUT4 Q295A) [%],% of binding to wild type GLUT4 (hsGLUT4 I313A) [%]
1F8 (antibody),101,75,81,85
"AB111 (Fc fusion, Bivalent scFv-Fc; also called MAb AB111; not shown: Fc fragment of human IgG1, cloned in frame with the scFv) scFv: ALTQPSSVSANPGETVKITCSGSGSWYGWFQQKSPGSAPVTVIYSNDKRPSDIPSRFSGSKSGSTSTLTITGVQVEDEAVYYCGNWDIFGAGTTLTVLGQSSRSSGGGGSSGGGGSAVTLDESGGGLQTPGGALSLVCKASGFTFSSHGMGWVRQAPGKGLEWVASISTGRYTFYAPAVKGRATISRDNGQSTVRLQLNNLRAEDTATYYCTKCAGLNGCGGGEIDAWGHGTEVIVSS",143,110,138,106
"AB108 (Fc fusion, Bivalent scFv-Fc; also called MAb AB108; not shown: Fc fragment of human IgG1, cloned in frame with the scFv) scFv: ALTQPSSVSANLGGTVKITCSGSSGSYGWYQQKAPGSAPVTLIYRNDKRPSDIPSRFSGSESGSTGTLTITGVQAEDEAVYFCGGYDSSAGYAAFGAGTTLTVLGQSSRSSGGGGSSGGGGSAVTLDESGGGLQTPGGALSLVCKASGFTFSSHGMGWVRQAPGKGLEWVGSISTGRYTFYAPAVKGRATISRDNGQSTLRLQLNNLRAEDTGTYYCTKCAGLNGCGGGEIDAWGHGTEVIVSS",111,91,113,39
"AB101 (scFv, Chicken-derived clone used as a control; the four lead clones were tested as scFv-human IgG1 Fc; also called MAb AB101) scFv: ALTQPSSVSANPGETVKITCSGSSNSYGWYQQKSPGSAPVTVIYYNDKRPSDIPSRFSGSKSDSTHTLTITGVRAEDEAVYFCGSYDSTYVGIFGAGTTLTVLGQSSRSSGGGGSSGGGGSAVTLDESGGGLQTPGGTLSLVCKASGFTFSSNAMGWVRQAPGKGLEWVAGISSDGRYTKYGSAVKGRATISRDNGQSTVRLQLNNLRAEDTGTYFCAKAFGNNYRRIYAGQIDAWGHGTEVIVSS",91,64,102,94
